Results: patent US7858322B2, “Method of determining inhibition of binding to TRPM7 protein” (NoNo, Inc., priority 2003, dated 2010)
No end group written: not given here. *: point of attachment. Biotin = O=C1N[C@H]2[C@H](CS[C@H]2CCCCC(=O)*)N1

Columns and labels:
Experiment in all cases: G assays, titrations or binding assays of peptides
RIM2 d1 = target: T1, RIM2 d1 (Homo sapiens, UniProt Q9UQ26); conditions: peptide demonstrated to bind RIM2 d1 in G assays
T1 construct: made in house; host or cells: E. coli (DH5α, BL21 or JM109)
T1 sequence (Q9UQ26 632-757): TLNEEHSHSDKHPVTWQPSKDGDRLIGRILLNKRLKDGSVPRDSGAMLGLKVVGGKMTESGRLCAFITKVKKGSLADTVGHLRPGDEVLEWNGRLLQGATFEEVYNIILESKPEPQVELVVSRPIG
Method: (§1) In one aspect, the invention provides an assay in which a GST/PDZ fusion protein is immobilized on a surface (G assay). […] In a preferred embodiment, the assay is carried out as follows:
(§2) (1) A PDZ-domain polypeptide is bound to a surface, e.g. a protein binding surface. In a preferred embodiment, a GST/PDZ fusion protein containing one or more PDZ domains is bound to a polystyrene 96-well plate. […] In one embodiment, the GST/PDZ fusion protein is bound via an anti-GST antibody that is coated onto the 96-well plate. Adequate binding to the plate can be achieved when: • a. 100 μl per well of 5 μg/ml goat anti-GST polyclonal antibody (Pierce) in PBS is added to a polystyrene 96-well plate (e.g., Nunc Polysorp) at 4° C. for 12 hours. • b. The plate is blocked by addition of 200 μl per well of PBS/BSA for 2 hours at 4° C. • c. The plate is washed 3 times with PBS. • d. 50 μl per well of 5 μg/ml GST/PDZ fusion protein) or, as a negative control, GST polypeptide alone (i.e. not a fusion protein) in PBS/BSA is added to the plate for 2 hours at 4° C. • e. the plate is again washed 3 times with PBS.
(§3) (2) Biotinylated PL peptides are allowed to react with the surface by addition of 50 μl per well of 20 μM solution of the biotinylated peptide in PBS/BSA for 10 minutes at 4° C., followed by an additional 20 minute incubation at 25° C. The plate is washed 3 times with ice cold PBS.
(§4) (3) The binding of the biotinylated peptide to the GST/PDZ fusion protein surface can be detected using a variety of methods and detectors known to one of skill in the art. In one embodiment, 100 μl per well of 0.5 μg/ml streptavidin-horseradish peroxidase (HRP) conjugate dissolved in BSA/PBS is added and allowed to react for 20 minutes at 4° C. The plate is then washed 5 times with 50 mM Tris pH 8.0 containing 0.2% Tween 20, and developed by addition of 100 μl per well of HRP-substrate solution (TMB, Dako) for 20 minutes at room temperature (RT). The reaction of the HRP and its substrate is terminated by addition of 100 μl per well of 1 M sulfuric acid, and the optical density (O.D.) of each well of the plate is read at 450 um.
(§5) (4) Specific binding of a PL peptide and a PDZ domain polypeptide is determined by comparing the signal from the well(s) in which the PL peptide and PDZ domain polypeptide are combined, with the background signal(s). […] Typically a specific or selective reaction will be at least twice background signal, more typically more than 5 times background, and most typically 10 or more times the background signal. […] Correspondingly, a statistical test (e.g. a T-test) comparing repeated measurements of the signal with repeated measurements of the background will result in a p-value <0.05, more typically a p-value <0.01, and most typically a p-value <0.001 or less. As noted, in an embodiment of the G assay, the signal from binding of a given PL peptide to immobilized (surface bound) GST polypeptide alone is one suitable negative control (sometimes referred to as B1). Because all measurement are done in multiples (i.e. at least duplicate) the arithmetic mean (or, equivalently, average.) of several measurements is used in determining the binding, and the standard error of the mean is used in determining the probable error in the measurement of the binding. The standard error of the mean of N measurements equals the square root of the following: the sum of the squares of the difference between each measurement and the mean, divided by the product of (N) and (N−1). Thus, in one embodiment, specific binding of the PDZ protein to the platebound peptide is determined by comparing the mean signal (“mean S”) and standard error of the signal (“SE”) for a particular PL-PDZ combination with the mean B1.

ZO-1 d2 = target: T2, ZO-1 d2 (Homo sapiens, UniProt Q07157, DEL264-264); conditions: peptide demonstrated to bind ZO-1 d2 in G assays
T2 construct: made in house; host or cells: E. coli (DH5α, BL21 or JM109)
T2 sequence (Q07157 with tags, fused parts or gaps DEL264-264): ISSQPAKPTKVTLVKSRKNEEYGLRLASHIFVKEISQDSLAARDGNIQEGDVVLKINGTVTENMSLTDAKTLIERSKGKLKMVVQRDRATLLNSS
Method: as §1, §2, §3, §4, §5

INADL d3 = target: T3, INADL d3 (Homo sapiens, UniProt Q8NI35); conditions: peptide demonstrated to bind INADL d3 in G assays
T3 construct: made in house; host or cells: E. coli (DH5α, BL21 or JM109)
T3 sequence (Q8NI35 with tags, fused parts or gaps): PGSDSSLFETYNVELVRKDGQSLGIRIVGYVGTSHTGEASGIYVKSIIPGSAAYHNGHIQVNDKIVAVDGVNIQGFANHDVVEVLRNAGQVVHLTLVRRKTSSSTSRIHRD
Method: as §1, §2, §3, §4, §5

PAR3 d3 = target: T4, PAR3 d3 (Homo sapiens, UniProt Q8TEW0, R682S); conditions: peptide demonstrated to bind PAR3 d3 in G assays
T4 construct: made in house; host or cells: E. coli (DH5α, BL21 or JM109)
T4 sequence (Q8TEW0 with tags, fused parts or gaps R682S): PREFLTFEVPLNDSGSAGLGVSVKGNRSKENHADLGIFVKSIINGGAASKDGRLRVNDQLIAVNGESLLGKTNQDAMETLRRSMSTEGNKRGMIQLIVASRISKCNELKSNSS
Method: as §1, §2, §3, §4, §5

Sequence	POZ domain bound (RIM2 d1)	POZ domain bound (ZO-1 d2)	POZ domain bound (INADL d3)	POZ domain bound (PAR3 d3)
YGRKKRRQRRRARGDRKRWA (Biotin-YGRKKRRQRRRARGDRKRWA)	RIM2 D1	ZO-1 D2	–	–
YGRKKRRQRRRARGDRKKIV (Biotin-YGRKKRRQRRRARGDRKKIV)	RIM2 D1	–	–	–
TTNNNPNSAVNIKKIFTDV (Biotin-TTNNNPNSAVNIKKIFTDV)	–	ZO-1 D2	INADL D3	–
LERTSSVSPSTAEPELSIVF (Biotin-LERTSSVSPSTAEPELSIVF)	–	–	–	PAR3 D3
VPSDNIDSQGRNASTNDSLL (Biotin-VPSDNIDSQGRNASTNDSLL)	–	–	INADL D3	–
SLIGPVQKEYQRELGKLSSP (Biotin-SLIGPVQKEYQRELGKLSSP)	–	–	INADL D3	–
YGRKKRRQRRRLQRRRETQV (Biotin-YGRKKRRQRRRLQRRRETQV)	RIM2 D1	–	–	–
YVYSRVKNLNSSEGVPDLLV	–	ZO-1 D2	–	–
RRRRRRRGTNPAVAATSANL (Biotin-RRRRRRRGTNPAVAATSANL)	–	ZO-1 D2	–	–
VDPNSPAAKKKYVSYNNLVI (Biotin-VDPNSPAAKKKYVSYNNLVI)	RIM2 D1	ZO-1 D2	INADL D3	PAR3 D3
YGRKKRRQRRRARGDRKRWL (Biotin-YGRKKRRQRRRARGDRKRWL)	RIM2 D1	ZO-1 D2	–	–
KHSRKSSSYSSSSTTVKTSY (Biotin-KHSRKSSSYSSSSTTVKTSY)	RIM2 D1	ZO-1 D2	INADL D3	PAR3 D3
YGRKKRRQRRRAVAATSANL	RIM2 D1	ZO-1 D2	INADL D3	PAR3 D3
DGGARTEDEVQSYPSKHDYV (Biotin-DGGARTEDEVQSYPSKHDYV)	–	–	–	PAR3 D3
NYKLNTDHAGSNDNIALLVQ	RIM2 D1	ZO-1 D2	–	–
YGRKKRRQRRRARGDRLEIV (Biotin-YGRKKRRQRRRARGDRLEIV)	RIM2 D1	–	–	–
YGRKKRRQRRRARGDVRLML (Biotin-YGRKKRRQRRRARGDVRLML)	RIM2 D1	–	–	–
PSSRASSRASSRPRPDDLEI (Biotin-PSSRASSRASSRPRPDDLEI)	–	ZO-1 D2	–	–
KAGYRAPRSYPKSNSSKEYV (Biotin-KAGYRAPRSYPKSNSSKEYV)	–	–	–	PAR3 D3
YGRKKRRQRRRGMTSSSSVV (Biotin-YGRKKRRQRRRGMTSSSSVV)	RIM2 D1	–	–	–

Sequence	POZ domain bound (RIM2 d1)	POZ domain bound (ZO-1 d2)	POZ domain bound (INADL d3)	POZ domain bound (PAR3 d3)
FHSKTAGANTTDKELEVLSL (Biotin-FHSKTAGANTTDKELEVLSL)	RIM2 D1	ZO-1 D2	INADL D3	PAR3 D3
YGRKKRRQRRRARSDRKRIA (Biotin-YGRKKRRQRRRARSDRKRIA)	RIM2 D1	–	–	–
LASKSAEEGKQIPDSLSTDL (Biotin-LASKSAEEGKQIPDSLSTDL)	–	–	INADL D3	PAR3 D3
RRRRRRRGNTTDKELEVLSL (Biotin-RRRRRRRGNTTDKELEVLSL)	–	ZO-1 D2	–	–
YGRKKRRQRRRARGDRRRIV (Biotin-YGRKKRRQRRRARGDRRRIV)	RIM2 D1	–	–	–
STDNLVRPFMDTLASHQLYI (Biotin-STDNLVRPFMDTLASHQLYI)	–	–	INADL D3	PAR3 D3
ELLQFCRTPNPALKNGQYWV (Biotin-ELLQFCRTPNPALKNGQYWV)	–	ZO-1 D2	INADL D3	PAR3 D3
YSATYSELEDPGEMSPPIDL (Biotin-YSATYSELEDPGEMSPPIDL)	–	–	INADL D3	–
HAMNAAPRAMENAPALRTSH (Biotin-HAMNAAPRAMENAPALRTSH)	–	–	INADL D3	–
YGRKKRRQRRRARSDRKRIV (Biotin-YGRKKRRQRRRARSDRKRIV)	RIM2 D1	–	–	–
YGRKKRRQRRRSEGVPDLLV	–	ZO-1 D2	–	PAR3 D3
QGDPALQDAGDSSRKEYFI (Biotin-QGDPALQDAGDSSRKEYFI)	–	–	–	PAR3 D3
YGRKKRRQRRRARGDRKRIV	RIM2 D1	ZO-1 D2	–	–
RSGATIPLVGQDIIDLQTEV (Biotin-RSGATIPLVGQDIIDLQTEV)	–	–	INADL D3	–
YGRKKRRQRRRGASADSTQA	RIM2 D1	ZO-1 D2	–	PAR3 D3
YGRKKRRQRRRAVAAASANL (Biotin-YGRKKRRQRRRAVAAASANL)	RIM2 D1	ZO-1 D2	–	–
YGRKKRRQRRRSVTSTSINL (Biotin-YGRKKRRQRRRSVTSTSINL)	RIM2 D1	–	–	–
KYSAPRRPTATGDYDKKNYV (Biotin-KYSAPRRPTATGDYDKKNYV)	–	–	–	PAR3 D3
YGRKKRRQRRRARSDRGIWA (Biotin-YGRKKRRQRRRARSDRGIWA)	RIM2 D1	ZO-1 D2	–	–
SSSRRDSSWSETSEASYSGL (Biotin-SSSRRDSSWSETSEASYSGL)	RIM2 D1	ZO-1 D2	–	–

Sequence	POZ domain bound (RIM2 d1)	POZ domain bound (ZO-1 d2)	POZ domain bound (INADL d3)	POZ domain bound (PAR3 d3)
LQFHRGSRAQSFLQTETSVI (Biotin-LQFHRGSRAQSFLQTETSVI)	–	–	INADL D3	PAR3 D3
LNSCSNRRVYKKMPSIESDV (Biotin-LNSCSNRRVYKKMPSIESDV)	–	ZO-1 D2	INADL D3	–
ENLELPVNPSSWSERISSV	–	–	INADL D3	–
YGRKKRRQRRRDKELEVLSL	–	ZO-1 D2	–	–
YGRKKRRQRRRQDEEEGIWS (Biotin-YGRKKRRQRRRQDEEEGIWS)	RIM2 D1	–	–	–
KTMPAAMYRLLTAQEQPVYI (Biotin-KTMPAAMYRLLTAQEQPVYI)	–	–	–	PAR3 D3
KTMPAAMFRLLTGQETPLYI (Biotin-KTMPAAMFRLLTGQETPLYI)	–	–	–	PAR3 D3
YGRKKRRQRRRSRTVREIWA (Biotin-YGRKKRRQRRRSRTVREIWA)	RIM2 D1	–	–	–
YGRKKRRQRRRQDEEETIWA (Biotin-YGRKKRRQRRRQDEEETIWA)	RIM2 D1	–	–	–
KTMPAATYRLLTGQEQPVYL (Biotin-KTMPAATYRLLTGQEQPVYL)	–	–	–	PAR3 D3
YGRKKRRQRRRAVAATYSNL (Biotin-YGRKKRRQRRRAVAATYSNL)	RIM2 D1	ZO-1 D2	–	–
YGRKKRRQRRRQDERVETRV (Biotin-YGRKKRRQRRRQDERVETRV)	RIM2 D1	–	–	–
YGRKKRRQRRREYLGLDVPV	RIM2 D1	ZO-1 D2	INADL D3	PAR3 D3
SSPDSSYQGKGFVMSRAMYV (Biotin-SSPDSSYQGKGFVMSRAMYV)	–	–	–	PAR3 D3
YGRKKRRQRRRQDEEEGIWA (Biotin-YGRKKRRQRRRQDEEEGIWA)	RIM2 D1	ZO-1 D2	–	–
TEGNESSEATSPVNAIYSLA (Biotin-TEGNESSEATSPVNAIYSLA)	–	ZO-1 D2	–	–
YGRKKRRQRRRAVAATGIWA (Biotin-YGRKKRRQRRRAVAATGIWA)	RIM2 D1	–	–	–
PGQPPKVKSEFNSYSLTGYV (Biotin-PGQPPKVKSEFNSYSLTGYV)	–	–	INADL D3	PAR3 D3
